For data set [1], the system named is MS2 coat protein. The experiment in a line: apparent KD of MS2 coat protein, switch ON state; designed switch direction (-1 OFF switch, 1 ON switch): -1; higher = weaker reporter binding. The note with it: FMN input: 0 or 200 uM; Eterna round: R93 (includes R88 designs). The method in brief:
(§1)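 Illumina sequencing clusters were used for on-chip transcription of designed RNA switches. Titration with SNAP-549-labelled MS2 coat protein followed, in twofold steps from 0.7 or 1.5 nM to 3 µM in 100 mM Tris-HCl pH 7.5, 80 mM KCl, 4 mM MgCl2, without or with constant ligand. Apparent KD is each design's median of fits to normalised cluster binding curves.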

Data set [2] deals with MS2 coat protein. The experiment in a line: apparent KD of MS2 coat protein, switch OFF state (with FMN for OFF switches, without FMN for ON switches); designed switch direction (-1 OFF switch, 1 ON switch): -1; higher = weaker reporter binding. The note with it: FMN input: 0 or 200 uM; Eterna round: R93 (includes R88 designs). In a few lines:
as §1

Data set [3] deals with MS2 coat protein. The experiment in a line: apparent KD of MS2 coat protein; designed switch direction (-1 OFF switch, 1 ON switch): 1; higher = weaker reporter binding. The method in brief:
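For each design, the apparent KD is the median over clusters of curves fitted to normalised cluster fluorescence. Clusters held RNA switches with common flanks, transcribed on Illumina chips by stalled E. coli RNA polymerase. These were titrated with SNAP-549-labelled MS2 coat protein, doubling from 0.7 or 1.5 nM to 3 µM, without input, with 200 uM small-molecule ligand, or with an oligonucleotide input.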

Where [4] appears, read: input ligand: microRNA oligo, concentration not stated.
Where [5] appears, read: Eterna round: R95, input ligand: FMN 200 uM.
The mark [6] stands for this setting: Eterna round: R95, input ligand: microRNA oligo, concentration not stated.
The mark [7] stands for this setting: Eterna round: R95, input ligand: none.

Turning to “AAAAAAAGAGGAUAUACGUACAUGUCAAAAGACGUGAAGGGACAUGAGGAUCACCCAUGUAGAAGGUUUAAAAA [JL Wide Open 30]”, the “apparent KD of MS2 coat protein” value in data set [1] was determined as 0.0355 µM; in data set [2] it was 0.0163 µM.

For “AAAAAACAUGAGGAUCACCCAUGUAAGGAUAUCCAAAAGAAAAGAAAAGAAAGAAGAAGGAGAAGGUACAAGAA [Sahure]”, the entries for the “apparent KD of MS2 coat protein” value in data set [1] and in data set [2] were 0.0411 µM and 0.0324 µM, respectively.

For “UUAAUAAAGUAAGGAUAUACAUGAGGAUCACUCGUAGAAGGUACUAUACAUGAGGAUCACCCAUGUUCCGGUCAGAAGACUGGA [Mat - Same State NG 1 - JL mod - D4] (Eterna round: R96, puzzle: Same State NG 1)”, the “apparent KD of MS2 coat protein” value in data set [3] (setting [4]) stood at 0.44 µM.

For the sequence “UUAAUAAUGAUAGGAUAUACAUGAGGAAUCCUCGUAGAAGGAUCAUGACAUGAGGAUCACCCAUGUAACGCUCAGAAGAGCGUA [Mat - Same State NG 1 - JL mod - D43] (Eterna round: R96, puzzle: Same State NG 1)”, the “apparent KD of MS2 coat protein” value in data set [3] (input ligand: FMN 200 uM) is 0.738 µM; in data set [3] (setting [4]), 0.0309 µM; in data set [3] (input ligand: none), 0.516 µM.

With “UUAAUAAUGAUAGGAUAUACAUGAGGAAUUCUCGUAGAAGGAUCAUGACAUGAGGAUCACCCAUGUAACGCUCGAAAGAGCGUA [Mat - Same State NG 1 - JL mod - D39] (Eterna round: R96, puzzle: Same State NG 1)”, the “apparent KD of MS2 coat protein” value is 0.513 µM in data set [3] (input ligand: FMN 200 uM), 0.394 µM in data set [3] (setting [4]) and 0.662 µM in data set [3] (input ligand: none).

Regarding “UUAAUGAAGUAAGGAUAUACAUGAGGAUCACUCGUAGAAGGUACUAUACAUGAGGAUCACCCAUGUUCCGGUCCGUAGACUGGA [JL SSNG1 1.02] (Eterna round: R96, puzzle: Same State NG 1)”, the “apparent KD of MS2 coat protein” value turned out to be 1.6 µM in data set [3] (input ligand: FMN 200 uM), 0.236 µM in data set [3] (setting [4]) and 0.841 µM in data set [3] (input ligand: none).

Consider “UUAAUGAUGAUAGGAUAUACAUGAGGAAUUCUCGUAGAAGGAUCAUGACAUGAGGAUCACCCAUGUAUCGCUCGAUAGAGCGUA [Mat - Same State NG 1 - JL mod - D34] (Eterna round: R96, puzzle: Same State NG 1)”, for which the “apparent KD of MS2 coat protein” value in data set [3] (input ligand: FMN 200 uM) worked out at 0.844 µM; in data set [3] (setting [4]), 0.142 µM; in data set [3] (input ligand: none) it was 0.158 µM.

Regarding “UUAAUGAUGUAAGGAUAUACAUGAGGAUUUCUCGUAGAAGGUACAAGACAUGAGGAUCACCCAUGUGUCGCUCGAAAGAGCGUA [Mat - Same State NG 1 - JL mod - D20] (Eterna round: R96, puzzle: Same State NG 1)”, the “apparent KD of MS2 coat protein” value in data set [3] (input ligand: FMN 200 uM) was found to be 0.282 µM; in data set [3] (setting [4]), 0.113 µM; in data set [3] (input ligand: none) it was 0.316 µM.

Take “UUAAUUUACUGAGGAUAUCGUGUCGACUGAGGUGACAUGAGGAUCACCCAUGUGAGAAGUGGUAUCGAGAAGGCAGUAUUCAUA [JR_SSNG2_Sub022] (Eterna round: R96, puzzle: Same State NG 2)”: the entries for the “apparent KD of MS2 coat protein” value in data set [3] (input ligand: FMN 200 uM), in data set [3] (setting [4]) and in data set [3] (input ligand: none) were 0.0926 µM, 0.306 µM and 0.506 µM, respectively.

For “UUACAGUGCGGGUAGGAUAUGUAGGGUGGUACAUGAGGAUCACCCAUGUAUCCACCCUUCGACCGGCAGAAGGGCCUGUCACUAC [Atarzale] (Eterna round: R96, puzzle: Same State 2)”, the “apparent KD of MS2 coat protein” value in data set [3] (input ligand: FMN 200 uM) is 0.014 µM; in data set [3] (setting [4]), 0.0121 µM; in data set [3] (input ligand: none) it was 0.0198 µM.

Take “UUACUCAUGUAAGGAUAUGCAGCCGAAACGGCUGCAGAAGGUACUAUAAUACAUGAGGAUCACCCAUGUCUUUUUAAUUUAGAC [Mat - Same State NG 1 - JL mod - D82] (Eterna round: R96, puzzle: Same State NG 1)”: the “apparent KD of MS2 coat protein” value in data set [3] (setting [4]) was found to be 0.037 µM.

On to “UUAGUCAUGUAAGGAUAUGCAGCCGUUUCGGCUGCAGAAGGUACUAUAAUUACAUGAGGAUCACCCAUGUUAUAAAAUUUAUAU [JL SSNG1 1.24] (Eterna round: R96, puzzle: Same State NG 1)”, for which the entries for the “apparent KD of MS2 coat protein” value in data set [3] (input ligand: FMN 200 uM), in data set [3] (setting [4]) and in data set [3] (input ligand: none) were 0.0199 µM, 0.025 µM and 0.0366 µM, respectively.

For the sequence “UUAUAACAUGAGGAUCACCCAUGUCAACAAAGUCGAGGAUAUGGGCAUAGAGGAUAAGAACCAGAAGGCGAAUAUU [Mat - Same State 1 - Mod of UCT - D39] (puzzle: Same State 1)”, the “apparent KD of MS2 coat protein” value in data set [3] (setting [5]) is 0.0708 µM; in data set [3] (setting [6]), 0.15 µM; in data set [3] (setting [7]), 0.163 µM.

“UUAUCUUUCCGAGGAUAUCCAUAUAAUUUACAUGAGGAUCACCCAUGUUAUUGGGAGUUUUUUUAGGAGAAGGCGGUUGUAGAU [JR_SSNG2_Sub051] (Eterna round: R96, puzzle: Same State NG 2)”: the “apparent KD of MS2 coat protein” value in data set [3] (input ligand: FMN 200 uM) was 0.0851 µM; in data set [3] (setting [4]), 0.0614 µM; in data set [3] (input ligand: none) it was 0.0711 µM.

Take “UUCACCUUAUUUUACAUGAGGAUCACCCAUGUUUUUUUUACGUAGGAUAUCGAUGCUUGUUUAUUCGAGAAGGACGAUGUAAGU [JR_SSND3_Sub053] (Eterna round: R96, puzzle: Same State NG 3)”: the “apparent KD of MS2 coat protein” value in data set [3] (setting [4]) was determined as 0.028 µM.

For “UUGAACAAUUAAGGAUAUCGAGUACAUAUGUUAAACAUGAGGAUCACCCAUGUGGGUUGCGGUAUCGAGAAGGUAAAUUAGAAG [Mat - Same State NG 2 - JL mod - D57] (Eterna round: R96, puzzle: Same State NG 2)”, the “apparent KD of MS2 coat protein” value is 0.0228 µM in data set [3] (input ligand: FMN 200 uM), 0.0253 µM in data set [3] (setting [4]) and 0.034 µM in data set [3] (input ligand: none).

Take “UUGAAGAAUUAAGGAUAUCGAGUACAUAUGUUAAACAUGAGGAUCACCCAUGUGGGUUGCGGUAUCGAGAAGGUAAAAUACAAG [Mat - Same State NG 2 - JL mod - D58] (Eterna round: R96, puzzle: Same State NG 2)”: the entries for the “apparent KD of MS2 coat protein” value in data set [3] (input ligand: FMN 200 uM), in data set [3] (setting [4]) and in data set [3] (input ligand: none) were 0.0288 µM, 0.0266 µM and 0.0338 µM, respectively.

With “UUGAAGAAUUAAGGAUAUUGAAUACAUAUGUUUAACAUGAGGAUCACCCAUGUGGGUUGCGGUAUCGAGAAGGUAAAAUAAUAG [Mat - Same State NG 2 - JL mod - D4] (Eterna round: R96, puzzle: Same State NG 2)”, the entries for the “apparent KD of MS2 coat protein” value in data set [3] (input ligand: FMN 200 uM), in data set [3] (setting [4]) and in data set [3] (input ligand: none) were 0.118 µM, 0.0918 µM and 0.11 µM, respectively.

For the sequence “UUGAUGUACUGAGGAUAUCGUGUCGUCUGAUUUUACAUGAGGAUCACCCAUGUGGGUUGUGGUAUCGAGAAGGCAGUUUUCUUA [JR_SSNG2_Sub029] (Eterna round: R96, puzzle: Same State NG 2)”, the “apparent KD of MS2 coat protein” value in data set [3] (input ligand: FMN 200 uM) was 0.0504 µM; in data set [3] (setting [4]), 0.0843 µM; in data set [3] (input ligand: none), 0.158 µM.

Consider “UUGAUUAGAAAUUAACAUGAGGAUCACCCAUGUAUUGGAUCAGAGGAUAUGCAUGUUUGAUUGUAGCAGAAGGCUGAUUGUGGA [JR_SSNG3_Sub028] (Eterna round: R96, puzzle: Same State NG 3)”, for which the “apparent KD of MS2 coat protein” value in data set [3] (input ligand: FMN 200 uM) was 0.0432 µM; in data set [3] (setting [4]), 0.0295 µM; in data set [3] (input ligand: none) it was 0.0465 µM.

As to “UUGCUCGUGUGAGGAUAUGCCGCCGUUUCGGCUGCAGAAGGUACUACGUUACAUGAGGAUCACCCAUGUCUCUGUUGUUUCGUG [salish99_SSNG1_r04_940] (Eterna round: R96, puzzle: Same State NG 1)”, the “apparent KD of MS2 coat protein” value was found to be 0.0181 µM in data set [3] (input ligand: FMN 200 uM), 0.0139 µM in data set [3] (setting [4]) and 0.0165 µM in data set [3] (input ligand: none).

For the sequence “UUUAGCGUUACAGGAUAUGGUGAGGAUCACCCACUAGAAGGGUAAACAUGUGCGUCGUACAUGAGGAUCACCCAUGUAGGGCGU (Eterna round: R96, puzzle: Same State NG 1)”, the “apparent KD of MS2 coat protein” value in data set [3] (input ligand: FMN 200 uM) amounted to 0.0144 µM; in data set [3] (setting [4]) it was 0.0137 µM; in data set [3] (input ligand: none), 0.0226 µM.

As for “UUUAGUUGCGGGCAGGAUAUGUAUUAAAAUACAUGAGGAUCACCCAUGUGAGACCGAAAAGGUCUACAGAAGGGCCAAUCGCGAC [Laonerce - 20] (puzzle: Same State 2)”, the results for the “apparent KD of MS2 coat protein” value in data set [3] (setting [5]), in data set [3] (setting [6]) and in data set [3] (setting [7]) were 0.0161 µM, 0.066 µM and 0.0795 µM, respectively.

Turning to “UUUAGUUGCGGGCAGGAUAUGUAUUAAAAUACAUGAGGAUCACCCAUGUGCGGGUAUAACACCCGACAGAAGGGCCAAUCGCAAC [Laonerce - 6] (puzzle: Same State 2)”, the “apparent KD of MS2 coat protein” value came to 0.0222 µM in data set [3] (setting [5]), 0.142 µM in data set [3] (setting [6]) and 0.24 µM in data set [3] (setting [7]).

On to “UUUAUACAUGAGGAUCACCCAUGUCAACGUAGUCGAGGAUAUGGGCAGCCGUGAGGCGUACUAGAAGGCGAAGAGG [JL-ss1-3.08 ViennaUCT mod] (puzzle: Same State 1)”, for which the “apparent KD of MS2 coat protein” value in data set [3] (setting [5]) was found to be 0.0497 µM; in data set [3] (setting [6]) it was 0.0388 µM; in data set [3] (setting [7]), 0.118 µM.

As to “UUUGCAUGACGAGGAUAUCAUUUAUUUCUUGAUUGAGAAGGCGUUUUUUUUAUUACCUAACAUGAGGAUCACCCAUGUGACAGU [JR_SSNG1_Sub045] (Eterna round: R96, puzzle: Same State NG 1)”, the “apparent KD of MS2 coat protein” value in data set [3] (input ligand: FMN 200 uM) came to 0.0148 µM; in data set [3] (setting [4]), 0.0196 µM; in data set [3] (input ligand: none), 0.0184 µM.

Source of the values: the supplement of paper PMC9170038.
